Assay results as given in patent US20070027089A1.
Where no end group is shown, it is not given here. [ ]: non-standard residue; d: D form. Ahx = NCCCCCC(=O)O

Target: amyloid precursor protein APP695 in HEK 293-APP cells (human), P05067
Assay: cell-based or functional assay

Chain of amyloid precursor protein APP695 in HEK 293-APP cells (human), P05067 (P05067 18-770): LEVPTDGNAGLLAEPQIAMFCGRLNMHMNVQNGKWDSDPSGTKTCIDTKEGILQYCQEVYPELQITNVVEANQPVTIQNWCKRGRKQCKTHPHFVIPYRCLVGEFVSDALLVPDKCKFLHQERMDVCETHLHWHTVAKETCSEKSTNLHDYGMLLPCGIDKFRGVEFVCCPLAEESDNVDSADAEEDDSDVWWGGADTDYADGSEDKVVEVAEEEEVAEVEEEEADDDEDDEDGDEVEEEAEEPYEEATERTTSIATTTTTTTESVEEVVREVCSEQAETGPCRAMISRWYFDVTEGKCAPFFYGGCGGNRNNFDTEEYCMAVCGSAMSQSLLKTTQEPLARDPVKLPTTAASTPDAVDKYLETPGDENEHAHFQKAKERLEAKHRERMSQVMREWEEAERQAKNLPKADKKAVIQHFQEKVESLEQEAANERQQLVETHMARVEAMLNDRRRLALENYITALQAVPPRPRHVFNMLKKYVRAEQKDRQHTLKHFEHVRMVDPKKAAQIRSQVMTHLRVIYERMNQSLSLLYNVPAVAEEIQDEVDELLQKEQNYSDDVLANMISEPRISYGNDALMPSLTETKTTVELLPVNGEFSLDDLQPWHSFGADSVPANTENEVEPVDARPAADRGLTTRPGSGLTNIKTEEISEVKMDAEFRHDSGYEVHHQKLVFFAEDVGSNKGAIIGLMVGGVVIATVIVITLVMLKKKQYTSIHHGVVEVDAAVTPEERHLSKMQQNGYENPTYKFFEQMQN

reduction of Aβ released from HEK293-APP cells (sandwich ELISA) at 6.25 µM peptide: 70%
B1: 6-aminohexanoic acid-c-Sub M ΔN3C1 (NH2-(CH2)5-CO-Cys-Ile-Gln-Ile-His-Phe-NH2) (peptide)
peptide: [Ahx]CIQIHF-NH2
modifications: N-terminus assumed
SMILES: CC[C@H](C)[C@H](NC(=O)[C@H](CCC(N)=O)NC(=O)[C@@H](NC(=O)[C@H](CS)NC(=O)CCCCCN)[C@@H](C)CC)C(=O)N[C@@H](Cc1c[nH]cn1)C(=O)N[C@@H](Cc1ccccc1)C(N)=O
